Experimental data as given in publication PMC5768722.

Target: Pertuzumab Cλ variants
Assay: BLI; antibody light chain variants pre-loaded on Anti-hIgG-Fc Capture (AHC) biosensors, Her2 at 100 nM to 6.25 nM, Octet QKe, 1x kinetic buffer

- Kd: 0.77 to 1.42 nM
Substance: HIS-tagged Her2 (recombinant extracellular portion) (from UniProt P04626 23-652) (domain or fragment)
